Reference: patent US20160130351A1 (NOVIMMUNE S A, published 2016)

Tests used:
[1] = target: T1, FULLY MOUSE IL-6R (mouse, UniProt P22272); assay: flow cytometry on PEAK cells displaying the IL-6R variant, goat anti-human IgG Alexa Fluor 647
T1 construct: also called chimeric receptor #5
T1 sequence (receptor chain, looked up): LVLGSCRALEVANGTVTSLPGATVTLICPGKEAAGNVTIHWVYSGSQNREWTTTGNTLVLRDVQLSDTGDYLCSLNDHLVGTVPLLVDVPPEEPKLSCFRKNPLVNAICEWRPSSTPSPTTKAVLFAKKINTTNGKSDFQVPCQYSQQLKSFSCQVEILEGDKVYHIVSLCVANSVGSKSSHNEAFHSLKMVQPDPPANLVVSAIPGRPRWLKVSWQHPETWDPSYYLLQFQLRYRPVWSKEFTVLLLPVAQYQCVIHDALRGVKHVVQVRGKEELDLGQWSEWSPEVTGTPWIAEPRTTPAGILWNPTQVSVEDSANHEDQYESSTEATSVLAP
Source text: (§1) An overlap extension PCR strategy was used to generate coding sequences specifying huIL-6R/mouseIL-6R chimeric proteins (FIG. 6A) and mouse IL-6R proteins containing human amino acid substitutions in D3 domains (FIG. 6B). Partially overlapping mutagenic oligonucleotide primers were used for PCR amplification of N- and C-terminal sequences on either side of huIL-6R/mouse IL-6R junctions or substituted regions, followed by gel isolation and annealing of the denatured PCR products. Full length PCR products were then digested by EcoRI and BglII and ligated into a pDISPLAY™ vector (Invitrogen). PEAK cells were grown in DMEM medium supplemented with 10% fetal calf serum and 4 mM L-glutamine. Cells were plated 12 to 24 h before transfection to have 40-50% confluency in 6 well plates. Transfections of pDISPLAY™ vectors (Invitrogen) were carried out by lipofection using TransIT® LT1 reagent (MirusBio) according manufacturer's specifications. Cells were grown for 48 h before harvesting and analysis by flow cytometry.
(§2) Cell surface staining was performed on PEAK cells displaying each variant of IL-6R and analyzed by flow cytometry (FIG. 6B-D). Cell surface expression of each chimeric IL-6R was assessed using an anti-human-CD126 PE or an anti-mouse CD126-PE antibody (BD Pharmingen).

[2] = target: soluble human IL-6Rc (shuIL-6Rc) recombinant fusion protein of IL-6R and IL-6 (human) (UniProt P08887); assay: SPR (Biacore 2000), mAb captured on anti-human IgG Fc, analyte in solution, 25 C, 1:1 Langmuir
[3] = target: T2, soluble cynomolgus monkey IL-6R (cynomolgus monkey, UniProt A0A2K5WN54 60-396); assay: as above
T2 construct: extracellular domain; also called scyIL-6R; soluble cynomolgus monkey IL-6 Receptor; not shown: C-terminal His- or Avi-Tag
T2 sequence: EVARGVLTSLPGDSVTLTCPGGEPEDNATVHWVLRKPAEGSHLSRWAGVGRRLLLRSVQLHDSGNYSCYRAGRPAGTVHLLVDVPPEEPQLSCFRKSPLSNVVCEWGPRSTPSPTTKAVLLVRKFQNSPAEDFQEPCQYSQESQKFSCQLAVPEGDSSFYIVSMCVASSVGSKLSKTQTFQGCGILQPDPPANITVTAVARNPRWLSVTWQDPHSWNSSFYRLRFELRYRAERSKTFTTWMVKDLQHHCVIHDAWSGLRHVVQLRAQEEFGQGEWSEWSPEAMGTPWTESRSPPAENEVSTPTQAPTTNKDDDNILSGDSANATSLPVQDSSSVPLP
Method: (§3) A CM5 Biacore chip was used and 1640 RU (response units) of an anti-human IgG Fc (Biacore AB, Uppsala, Sweden) was immobilized by EDC/NHS chemistry. […] The surface was regenerated after each cycle by injection of 3M magnesium chloride at 20 μL/min, for 30 s followed by lmin of stabilization time in HBS-EP buffer (Biacore AB, Uppsala, Sweden). Binding was measured by passing analytes carrier-free soluble human IL-6R (shuIL6-R; R&D), soluble human IL-6Rc (shuIL-6Rc) and soluble cynomolgus monkey IL-6R (scyIL-6R) in duplicates at the following concentrations: 100 nM, 50 nM, 25 nM, 12.5 nM, 6.25 nM and 0nM. All solutions were diluted in HBS-EP buffer. Injection was performed at 50 μl/min for 3 min followed by 12 min of dissociation time and the temperature was set at 25° C.

[4] = target: T3, carrier-free soluble human IL-6R (R&D) (human, UniProt P08887 20-365); assay: as above
T3 construct: extracellular domain; also called shuIL-6R; shuIL6-R
T3 sequence (looked up): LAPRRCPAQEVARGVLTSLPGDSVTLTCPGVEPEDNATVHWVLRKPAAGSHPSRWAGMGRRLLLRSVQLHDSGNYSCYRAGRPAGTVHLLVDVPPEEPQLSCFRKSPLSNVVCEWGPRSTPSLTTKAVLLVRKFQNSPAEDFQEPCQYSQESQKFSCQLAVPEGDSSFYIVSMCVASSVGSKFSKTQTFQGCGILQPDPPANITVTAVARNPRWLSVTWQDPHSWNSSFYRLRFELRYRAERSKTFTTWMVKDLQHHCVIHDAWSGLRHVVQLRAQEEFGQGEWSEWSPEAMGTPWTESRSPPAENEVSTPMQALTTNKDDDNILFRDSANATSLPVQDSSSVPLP
Method: as §3

[5] = target: T4, MUTANT 3 (mouse, UniProt P22272); assay: flow cytometry on PEAK cells displaying the mutated mouse IL-6R, goat anti-human IgG Alexa Fluor 647
T4 construct: also called mouse IL-6R with human residues in D3, mutant 3
T4 sequence (receptor chain, looked up): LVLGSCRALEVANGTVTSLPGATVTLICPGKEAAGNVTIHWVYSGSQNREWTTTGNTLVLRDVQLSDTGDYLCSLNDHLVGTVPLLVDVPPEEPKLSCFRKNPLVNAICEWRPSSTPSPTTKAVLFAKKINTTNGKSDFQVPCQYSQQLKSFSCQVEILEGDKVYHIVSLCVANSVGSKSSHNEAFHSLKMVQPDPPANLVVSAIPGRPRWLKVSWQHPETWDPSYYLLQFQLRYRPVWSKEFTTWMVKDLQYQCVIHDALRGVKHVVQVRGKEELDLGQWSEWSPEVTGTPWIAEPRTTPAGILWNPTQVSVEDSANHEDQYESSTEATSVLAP
Source text: as §1, §2

binding result [1]: no binding
Kd [2]: 5.64 nM
koff [2]: 0.000243 s⁻¹
kon [2]: 43100 M⁻¹ s⁻¹
Kd [3]: 2.04 nM
koff [3]: 0.000215 s⁻¹
kon [3]: 106000 M⁻¹ s⁻¹
Kd [4]: 0.0567 nM
koff [4]: 7.53e-05 s⁻¹
kon [4]: 1.33e+06 M⁻¹ s⁻¹
binding result [5]: no binding
B1: NI-1201 wild type (NI-1201-WT) antibody (antibody, V domains shown)
VH: QVQLVQSGAEVKKPGSSVKVSCKASGGTFSSYAISWVRQAPGQGLEWMGGIIPLFDTTKYAQQFQGRVTITADESTSTAYMELSSLRSEDTAVFYCARDRDILTDYYPMGGMDVWGQGTTVTVSS
VL: AIQLTQSPSSLSASVGDRVTITCRASQGISSVLAWYQQKPGKAPKLLIYDASSLESGVPSRFSGSGSGTDFTLTISSLQPEDFATYYCQQSNSYPLTFGGGTKVEIKR
notes: Fully human monoclonal IgG (captured by anti-human IgG Fc in Biacore); also called 39B9 VL1
